PMC9533685, “NICD3 regulates the expression of MUC5AC and MUC2 by recruiting SMARCA4 and is involved in the differentiation of mucinous colorectal adenocarcinoma” (Molecular Oncology, 2022)
Each block holds one binder with its values, some of them ahead of it.

Target: T1, His-tagged human NOTCH3 intracellular domain (aa 1665-2321) (human, UniProt Q9UM47 1665-2321)
T1 construct: human NOTCH3 intracellular domain, aa 1665-2321; also called His-NICD3; source: E. coli, purified (GeneCreate Biological Engineering)
T1 sequence (looked up): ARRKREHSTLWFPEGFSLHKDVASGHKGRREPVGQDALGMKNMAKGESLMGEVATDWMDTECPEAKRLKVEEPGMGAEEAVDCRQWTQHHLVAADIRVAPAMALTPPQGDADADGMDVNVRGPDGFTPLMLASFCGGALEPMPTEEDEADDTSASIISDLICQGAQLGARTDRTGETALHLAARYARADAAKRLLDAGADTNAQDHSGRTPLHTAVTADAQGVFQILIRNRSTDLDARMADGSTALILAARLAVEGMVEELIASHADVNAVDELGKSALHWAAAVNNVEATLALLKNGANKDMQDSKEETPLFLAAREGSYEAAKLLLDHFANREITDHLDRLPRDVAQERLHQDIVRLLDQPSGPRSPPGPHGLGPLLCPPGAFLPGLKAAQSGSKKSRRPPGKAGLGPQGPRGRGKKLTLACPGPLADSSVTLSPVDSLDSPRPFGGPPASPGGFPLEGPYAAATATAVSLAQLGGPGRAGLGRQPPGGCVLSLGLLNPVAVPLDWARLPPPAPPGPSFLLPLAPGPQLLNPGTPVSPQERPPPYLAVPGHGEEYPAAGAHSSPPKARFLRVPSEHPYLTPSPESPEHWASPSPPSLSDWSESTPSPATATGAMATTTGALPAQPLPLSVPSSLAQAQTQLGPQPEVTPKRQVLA
Test: pull-down; GST pull-down: purified GST-tagged SMARCA4 segments mixed with His-NICD3 on ice for 3 h, beads, five washes, elution with 15 mM reduced glutathione; blots with anti-GST and anti-His; GST as negative control
Conditions: both partners purified

binding result: binds
B1: GST-tagged SMARCA4 BROMO domain (aa 1455-1566) (domain or fragment, human, UniProt P51532 1455-1566, looked up)
chain: PPNLTKKMKKIVDAVIKYKDSSSGRQLSEVFIQLPSRKELPEYYELIRKPVDFKKIKERIRNHKYRSLNDLEKDVMLLCQNAQTFNLEGSLIYEDSIVLQSVFTSVRQKIEK
notes: also called SMART BROMO domain; source: E. coli, purified (GeneCreate Biological Engineering)

binding result: binds
B2: GST-tagged SMARCA4 BRK domain (aa 612-656) (domain or fragment, human, UniProt P51532 612-656, looked up)
chain: MSDLPVKVIHVESGKILTGTDAPKAGQLEAWLEMNPGYEVAPRSD
notes: also called SMART BRK domain; source: E. coli, purified (GeneCreate Biological Engineering)
